# Biological target: Candida albicans cell surface hemoglobin receptor (Candida albicans)
# Test: cell-based or functional assay
substance,measurement,value
hemoglobin,"Renilla luciferase activity driven by the CaHMX1 promoter in C. albicans strain CAMP Ki-29, iron-sufficient medium, within 2.5 min of Hb addition",> 10 fold
